Test results published in patent publication US7452701B2, “Methods for the preparation of β-amino acids” (Wisconsin Alumni Research Foundation, priority 1998, dated 2008).

How the values were obtained:
[1] = target: T1, Escherichia coli 2,3-aminomutase (P39280 protein) (Escherichia coli, UniProt P39280); experiment: Lysine 2,3-aminomutase activity of E. coli P39280 protein, HPLC of PITC derivatives; type: biochemical; conditions: L-lysine 44 mM, 37° C. for 60 min
T1 sequence (P39280 whole entry, looked up): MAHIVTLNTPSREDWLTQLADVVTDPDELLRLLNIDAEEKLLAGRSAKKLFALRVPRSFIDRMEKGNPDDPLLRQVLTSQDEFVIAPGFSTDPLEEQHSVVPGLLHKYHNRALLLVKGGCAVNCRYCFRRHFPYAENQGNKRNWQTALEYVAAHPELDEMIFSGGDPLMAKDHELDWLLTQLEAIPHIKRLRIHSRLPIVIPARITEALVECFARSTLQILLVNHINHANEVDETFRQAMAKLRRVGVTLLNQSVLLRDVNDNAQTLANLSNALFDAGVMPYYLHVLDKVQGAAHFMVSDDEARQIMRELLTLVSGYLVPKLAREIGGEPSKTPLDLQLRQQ
Protocol: Lysine 2,3-aminomutase activity was measured with the Escherichia coli 2,3-aminomutase (P39280 protein) as described for alanine 2,3-aminomutase (see Example 5) with the following exceptions: P39280 protein, (25.4 μM-subunit); S-(5′-adenosyl)-L-methionine 90 μM; sodium hydrosulfite 2.3 mM; L-lysine 44 mM. The reaction was conducted at 37° C. for 60 min. The HPLC gradient established was 0-10% Buffer B in 35 min, 10-30% Buffer B in 35 min, 30-55% Buffer B in 35 min, and 55-100% Buffer B in 20 min. The PITC derivative of L-lysine eluted at a retention time of 101 min whereas the PITC derivative of β-lysine eluted at 95.6 min.

[2] = target: T2, Clostridial lysine 2,3-aminomutase (Clostridium subterminale, UniProt Q9XBQ8); experiment: Lysine 2,3-aminomutase activity, conversion of C-14 L-α-lysine to L-β-lysine (paper electrophoresis); type: biochemical, Clostridium subterminale SB4; conditions: purified recombinant produced enzyme
T2 construct: made in house; host or cells: E. coli BL21(DE3) with pET-23a(+) (lysine 2,3-aminomutase gene) and pAlter-Ex2 (dnaY gene)
Protocol: Aerobically grown E. coli cells (1 ml) containing the pET 23a(+) plasmid vector with the Clostridial lysine 2,3-aminomutase gene and the p-Alter-EX2 plasmid vector with the E. coli dnaY gene were used to seed a glass fermentor (Virtis Laboratory Fermentor #233395, Virtis Corporation, Gardiner, N.Y.) containing 15 liters of 2×YT media (240 gm Difco Bactotryptone, 150 gm Bacto yeast extract, […], Difco Laboratories, Detroit, Mich.) and supplemented with 50 μM Fe(II)SO4, 50 μM ZnSO4, 50 μM Na2S, 4 mM sodium thioglycolate, 100 μg/ml ampicillin, and 10 μg/ml tetracycline. The sealed flask was made anaerobic by gentle bubbling of nitrogen gas for 3 hours prior to cell inoculation. Anaerobicity was monitored by the presence of a small quantity of methylene blue (10 mg) which remains colorless in the absence of oxygen. After approximately 14 hours anaerobic culture at 37° C. when the cell density had reached 0.05 OD (optical density) at 600 nm, 0.2% (w/v) D-(+) glucose was added. […]
The supernatant was used to measure L-β-lysine formation according to the procedure of Ballinger et al. Biochemistry 31:10782 (1992). […] The mixture was spotted onto chromatography paper (Whatman #3001917, Whatman, LTD, Maidstone, England), the amino acids separated by electrophoresis and radioactivity measured according to the published procedure. […]

B1: P39280-protein: E. coli polypeptide, SEQ ID NO: 4, distant homologue of lysine 2,3-aminomutase from Cl. subterminale (protein, listed as Escherichia coli)
chain: T1 sequence (P39280 whole entry, looked up)
Q: For B1, which “2,3-aminomutase activity toward L-lysine” value [1] is on record?
A: The value was “does display 2,3-aminomutase activity”.

B2: purified recombinant produced lysine 2,3-aminomutase: Clostridial lysine 2,3-aminomutase expressed in E. coli and purified (protein, UniProt Q9XBQ8 1-416, looked up)
L-lysine 2,3-aminomutase: MINRRYELFKDVSDADWNDWRWQVRNRIETVEELKKYIPLTKEEEEGVAQCVKSLRMAITPYYLSLIDPNDPNDPVRKQAIPTALELNKAAADLEDPLHEDTDSPVPGLTHRYPDRVLLLITDMCSMYCRHCTRRRFAGQSDDSMPMERIDKAIDYIRNTPQVRDVLLSGGDALLVSDETLEYIIAKLREIPHVEIVRIGSRTPVVLPQRITPELVNMLKKYHPVWLNTHFNHPNEITEESTRACQLLADAGVPLGNQSVLLRGVNDCVHVMKELVNKLVKIRVRPYYIYQCDLSLGLEHFRTPVSKGIEIIEGLRGHTSGYCVPTFVVDAPGGGGKTPVMPNYVISQSHDKVILRNFEGVITTYSEPINYTPGCNCDVCTGKKKVHKVGVAGLLNGEGMALEPVGLERNKRHVQE
Q: With B2 as the molecule, how does the enzyme activity [2] read?
A: The enzyme activity was 34.5±1.6 μmoles lysine min^1 mg^−1 protein.
